This is an account of results in the RNAGym collection of RNA variant scans (doi:10.1073/pnas.2313332121).

Variants at the floor of the assay were thinned out.

B1: TPR 5TU (parent)
chain: GGAUCUUCUCGAUCUAACAAAAAAGACAAAUCUGCCACAAAGCUUGAGAGCAUCUUCGGAUGCAGAGGCGGCAGCCUUCGGUGGCGCGAUAGCGCCAACGUUCUCAACUAUGACACGCAAAACGCGUGCUCCGUUGAAUGGAGUUUAUCAUG

In the series the parent is B1. Briefly: polymerase ribozyme fitness, log enrichment relative to wild type (log ratio); higher = more active; in vitro selection for triplet polymerase activity. Summed up: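 Fitness measures genotype enrichment against wild-type enrichment on a logarithmic scale, with inverse-variance-weighted averaging of replicates. The logarithm is base 2, and genotypes were kept only with ≥10 input reads and ≥1 read per output in Illumina sequencing. The sequenced libraries came from one triplicate in vitro selection round, including frozen incubation at −7 °C, of PCR-built, transcribed mutant libraries of each subunit of a heterodimeric triplet polymerase ribozyme.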
With A23C A24U C57U G58A U61A C93G C103U C118U, the “polymerase ribozyme fitness (log ratio)” value was ≤ -4.2.

In the case of A23C A98U A113U, the “polymerase ribozyme fitness (log ratio)” value is -4.18.

Regarding A22G U55G C57U G84U C85A, the “polymerase ribozyme fitness (log ratio)” value is -0.696.

For A23U C35A A41C U55G G86C C95G C105A, the “polymerase ribozyme fitness (log ratio)” value was ≤ -4.2.

A23U A30G U45A A97G G100U: the “polymerase ribozyme fitness (log ratio)” value is -4.19.

For the variant A23G A37G A39G U44A A64U C75U C95U C108A A142U, the “polymerase ribozyme fitness (log ratio)” value is ≤ -4.2.

As for A23C C32U A64G G81A C87G C95U C96A A97G A138C G141U, the “polymerase ribozyme fitness (log ratio)” value was ≤ -4.2.

In the case of A22U C35G C76G G92A C105U, the “polymerase ribozyme fitness (log ratio)” value was ≤ -4.2.

As for A23G A40G G42C, the “polymerase ribozyme fitness (log ratio)” value was ≤ -4.2.

For A22U G46A A115G, the “polymerase ribozyme fitness (log ratio)” value is -1.54.

Turning to A22G G59A A60C C85A G94A C105U G126A, the “polymerase ribozyme fitness (log ratio)” value is -4.1.

For A22U A49G C54U C85U, the “polymerase ribozyme fitness (log ratio)” value was -0.721.

With A22U C87A, the “polymerase ribozyme fitness (log ratio)” value is -4.14.

For A22U C87U, the “polymerase ribozyme fitness (log ratio)” value amounted to 0.455.

A23G U31A G58C G70C C93G A107G: the “polymerase ribozyme fitness (log ratio)” value was ≤ -4.2.

For A22U G83C, the “polymerase ribozyme fitness (log ratio)” value is -1.73.

Take A23U C54U G74U U78G: the “polymerase ribozyme fitness (log ratio)” value was ≤ -4.2.

A23U C43U U61G G84U A89C C108G U145A: the “polymerase ribozyme fitness (log ratio)” value was ≤ -4.2.

A23G C32G G70A C85G: the “polymerase ribozyme fitness (log ratio)” value is ≤ -4.2.

On to A23C U33A A41G U45A C87G C103G, for which the “polymerase ribozyme fitness (log ratio)” value is ≤ -4.2.

In the case of A23G U61G C93G G126A, the “polymerase ribozyme fitness (log ratio)” value is ≤ -4.2.

For A22U A41U, the “polymerase ribozyme fitness (log ratio)” value was 0.0369.

On to A22G G124A, for which the “polymerase ribozyme fitness (log ratio)” value is 0.539.

Regarding A22U U55A C96U, the “polymerase ribozyme fitness (log ratio)” value is -0.172.

For the variant A23U A52C U55A G81U G84A C99A U127C U145G, the “polymerase ribozyme fitness (log ratio)” value was ≤ -4.2.

Take A23U C85U A91G G126C G140U: the “polymerase ribozyme fitness (log ratio)” value is ≤ -4.2.

On to A23G C72U, for which the “polymerase ribozyme fitness (log ratio)” value was -3.74.

For A22U U55A A66C U77A C87A, the “polymerase ribozyme fitness (log ratio)” value was ≤ -4.2.

With A23U G42C C54U C76A C93A U127C G133C, the “polymerase ribozyme fitness (log ratio)” value is ≤ -4.2.

For A22U C108U, the “polymerase ribozyme fitness (log ratio)” value is -2.85.

In the case of A22U A120G U144A, the “polymerase ribozyme fitness (log ratio)” value stood at 0.42.

As to A22G G88A C96U, the “polymerase ribozyme fitness (log ratio)” value was ≤ -4.2.

Turning to A22G G70U C118U, the “polymerase ribozyme fitness (log ratio)” value is -3.77.

In the case of A22U A26G A28C A37U U56A C96U A98U, the “polymerase ribozyme fitness (log ratio)” value was ≤ -4.2.

As for A23C C87U G112U, the “polymerase ribozyme fitness (log ratio)” value was -3.99.

A23C A41U G68U C93U A106G: the “polymerase ribozyme fitness (log ratio)” value was ≤ -4.2.

Turning to A23C G46C A47G G84U C87A C93U U109G, the “polymerase ribozyme fitness (log ratio)” value was ≤ -4.2.

Regarding A23C C27G U61A U77A A91U G136C, the “polymerase ribozyme fitness (log ratio)” value was ≤ -4.2.

Consider A22U A52G A91C U135G, for which the “polymerase ribozyme fitness (log ratio)” value was ≤ -4.2.

In the case of A22U G126A, the “polymerase ribozyme fitness (log ratio)” value came out at 1.07.

As to A22G U31C U44A C95G A150G, the “polymerase ribozyme fitness (log ratio)” value was ≤ -4.2.

For A22U G88U C116A A119U, the “polymerase ribozyme fitness (log ratio)” value is -4.1.

In the case of A23U A40G U77A G84A U146G, the “polymerase ribozyme fitness (log ratio)” value is ≤ -4.2.

In the case of A23G G46A U56A C87A G141C, the “polymerase ribozyme fitness (log ratio)” value is ≤ -4.2.

Regarding A22U G46C C114U, the “polymerase ribozyme fitness (log ratio)” value is -3.67.

A22G G83A C105A: the “polymerase ribozyme fitness (log ratio)” value was -3.83.

A23G C36U G50U G100A A107G C118G: the “polymerase ribozyme fitness (log ratio)” value is ≤ -4.2.

As for A23U C43U G59C A60G G94C, the “polymerase ribozyme fitness (log ratio)” value was ≤ -4.2.

In the case of A23U A26C A30U U56A A60C G86U G88C C95G G124U A137U U148C, the “polymerase ribozyme fitness (log ratio)” value was ≤ -4.2.

Turning to A22U G34A G74U G94A A119C G143A, the “polymerase ribozyme fitness (log ratio)” value was ≤ -4.2.

In the case of A23G C85U C95U G133U, the “polymerase ribozyme fitness (log ratio)” value is -4.

On to A23G G59U C95U A110G, for which the “polymerase ribozyme fitness (log ratio)” value was -3.86.

On to A22G G86C, for which the “polymerase ribozyme fitness (log ratio)” value was -1.67.

For A23U C38A U45G G50C U56A C93G G117A, the “polymerase ribozyme fitness (log ratio)” value is ≤ -4.2.

Turning to A22U A30G G46C G50C A52C U55G C72U U82A C87A G88C U90A C99U, the “polymerase ribozyme fitness (log ratio)” value was ≤ -4.2.

Turning to A23U C54A G83U U102G, the “polymerase ribozyme fitness (log ratio)” value is ≤ -4.2.

Take A23C U53A G83C A91G A147U: the “polymerase ribozyme fitness (log ratio)” value was ≤ -4.2.

Turning to A23G U55A C87U, the “polymerase ribozyme fitness (log ratio)” value is -2.98.

In the case of A23U A24U, the “polymerase ribozyme fitness (log ratio)” value was -4.12.

Regarding A23C U55A C87G C114G G133U G136U, the “polymerase ribozyme fitness (log ratio)” value was ≤ -4.2.

For A23U C93U G126U, the “polymerase ribozyme fitness (log ratio)” value is ≤ -4.2.

Turning to A23U C35G A73U G81A U109G, the “polymerase ribozyme fitness (log ratio)” value was ≤ -4.2.

On to A23U A150G, for which the “polymerase ribozyme fitness (log ratio)” value is ≤ -4.2.

For A22G U33C C35U A66C, the “polymerase ribozyme fitness (log ratio)” value was ≤ -4.2.

Take A22U A41G C93U A107U C108U C129U G133U A142C: the “polymerase ribozyme fitness (log ratio)” value is ≤ -4.2.

With A22U A39U A40C A66C C105U, the “polymerase ribozyme fitness (log ratio)” value was ≤ -4.2.

As to A22U A49C C69G G70C U101A, the “polymerase ribozyme fitness (log ratio)” value is ≤ -4.2.

On to A23C G59A G92U U104C A113C C123U G124A, for which the “polymerase ribozyme fitness (log ratio)” value was ≤ -4.2.

A23G A26U C54A U90G A91G: the “polymerase ribozyme fitness (log ratio)” value is ≤ -4.2.

As to A23U C114U, the “polymerase ribozyme fitness (log ratio)” value is -3.88.

Regarding A22U C95A C96A C99U, the “polymerase ribozyme fitness (log ratio)” value is -1.54.

With A23G A24U C27G U55A G92U, the “polymerase ribozyme fitness (log ratio)” value is -3.98.

Turning to A23C C43A A52U A119C U135G U139A G140A A142G, the “polymerase ribozyme fitness (log ratio)” value is ≤ -4.2.

Turning to A22U A37G A49C G62U C75G C76A G81U C85G G128C, the “polymerase ribozyme fitness (log ratio)” value was ≤ -4.2.

Consider A22U C76U U102G, for which the “polymerase ribozyme fitness (log ratio)” value is -3.01.

As for A22U G46C A73U, the “polymerase ribozyme fitness (log ratio)” value is -3.61.

Regarding A23U A29C A119U, the “polymerase ribozyme fitness (log ratio)” value was ≤ -4.2.

In the case of A22U A28U U45G G50U C103G, the “polymerase ribozyme fitness (log ratio)” value is ≤ -4.2.

On to A23C A41C C75A G84A A115U G152A, for which the “polymerase ribozyme fitness (log ratio)” value was ≤ -4.2.

A23U C85U: the “polymerase ribozyme fitness (log ratio)” value is -3.33.

A23G G50U U146G: the “polymerase ribozyme fitness (log ratio)” value is -3.73.

For the variant A23C C93U G141U, the “polymerase ribozyme fitness (log ratio)” value was ≤ -4.2.

Regarding A22G G84A A91C C103G U104G, the “polymerase ribozyme fitness (log ratio)” value is ≤ -4.2.
